Series [1] is described as follows: Lactose 2-epimerase activity of enzyme preparations. Particulars: purified enzyme. It is filed as biochemical. As to the method:
Through the specification of the present invention, the activity of the cellobiose 2-epimerase was determined as a lactose 2-epimerase activity, which catalyzes epimerization of lactose to form epilactose, using lactose as the substrate obtainable in highly purified form at low cost. The lactose 2-epimerase activity was measured as follows. To 1,000 μl of substrate solution, which contains lactose to give a final concentration of 35.1 mM and acetate buffer (pH 6.0) to give a final concentration of 20 mM of the reaction solution, 200 μl of a enzyme solution was added to give a 1,200 μl of the reaction solution, followed by reaction at 50° C. for 20 minutes. The reaction was stopped by heating for 10 minutes in a boiling water bath. Then reaction mixture was subjected to HPLC chromatography to determine the amount of epilactose produced by the reaction. The HPLC chromatography was conducted at the following conditions; […]
Then, each seed culture broth was inoculated into 10 L of the same medium eight each in eight 11-L pressure steel bottles and cultured. […] The epimerase activity of the crude enzyme was determined to be 0.009 Unit/ml.
The enzyme preparation purified by the above process contained 0.9 mg protein, and its activity yield was 3.4% from the crude enzyme. […] The amount of protein was measured by Lowry method using bovine serum albumin as standard.

Series [2] deals with cellobiose 2-epimerase. Description: Effect of metal ions on the epimerase activity. The class given is biochemical, Caldicellusiruptor saccharolyticus ATCC43494. Particulars: ions that inhibit the enzyme; listed as Caldicellulosiruptor saccharolyticus ATCC43494.
Series [3] in a line: Substrate specificities of the cellobiose 2-epimerase (summary Table 6). It is filed as biochemical. The settings on record: listed as Caldicellulosiruptor saccharolyticus ATCC43494. As to the method:
Reaction products formed from D-glucose, D-galactose, and D-mannose by the action of the cellobiose 2-epimerase of the present invention were investigated. D-Glucose, D-galactose, or D-mannose was dissolved into 50 mM acetate buffer (pH 6.0) to give a final concentration of 20% (w/v) to make into a substrate solution. To 0.1 ml of the substrate solution, 130 units/g-solid substrate for D-glucose and D-mannose (0.1 ml as the enzyme solution), or 500 units/g-solid substrate for D-galactose (0.1 ml as the enzyme solution), of the purified preparation of the recombinant cellobiose 2-epimerase, obtained by the method in Experiment 4-4, was admixed; and followed the enzyme reaction at 60° C. for 48 hours.
Each of them was dissolved into 20 mM acetate buffer (pH 6.0), admixed with the purified preparation of the recombinant cellobiose 2-epimerase, obtained by the method in Experiment 4-4, and followed the enzyme reaction under the conditions of 10% (w/v) substrate concentration, 60° C. for 72 hours. The amount of enzyme was set to 130 or 500 units/g-substrate when monosaccharide was used as the substrate, and to 1 or 130 units/g-substrate when disaccharide or trisaccharide was used as the substrate. Each reaction mixture was heated at 100° C. for 10 minutes to stop the reaction and subjected to HPLC analysis to determine the contents of isomerized saccharide, on a dry solid basis. The contents of epilactose and lactulose in the reaction mixture obtained using lactose as substrate were determined by GC analysis described in Experiment 1-2.
The physicochemical properties and substrate specificities of the cellobiose 2-epimerase from Caldicellulosiruptor saccharolyticus ATCC43494, obtained from above experiments, were shown in Table 6 together with those of conventional cellobiose 2-epimerases from Ruminococcus albus (excerpted from Non-Patent Document 3) and Eubacterium cellosolvens (excerpted from Non-Patent Document 4).

The nature of series [4]: Optimum temperature and optimum pH of epimerase activity. It is filed as biochemical. The settings on record: for Optimum pH: reacted at 50° C. for 20 minutes; for Optimum temperature: reacted at pH 6.0 for 20 minutes. As to the method: Through the specification of the present invention, the activity of the cellobiose 2-epimerase was determined as a lactose 2-epimerase activity, which catalyzes epimerization of lactose to form epilactose, using lactose as the substrate obtainable in highly purified form at low cost. The lactose 2-epimerase activity was measured as follows. To 1,000 μl of substrate solution, which contains lactose to give a final concentration of 35.1 mM and acetate buffer (pH 6.0) to give a final concentration of 20 mM of the reaction solution, 200 μl of a enzyme solution was added to give a 1,200 μl of the reaction solution, followed by reaction at 50° C. for 20 minutes. The reaction was stopped by heating for 10 minutes in a boiling water bath. Then reaction mixture was subjected to HPLC chromatography to determine the amount of epilactose produced by the reaction. The HPLC chromatography was conducted at the following conditions;
Using the purified cellobiose 2-epimerase preparation obtained by the method of Experiment 2, effects of temperature and pH on the epimerase activity were investigated according to the method of assaying the activity. The results were in FIG. 3 (optimum temperature) and FIG. 4 (optimum pH). The optimum temperature of the enzyme is 80° C. when reacted at pH 6.0 for 20 minutes. The optimum pH of the enzyme is 7.8 when reacted at 50° C. for 20 minutes.

Series [5] is described as follows: Thermostability and pH stability (residual activity). Particulars: incubated at pH 6.0 for 60 minutes.
Experimental: The thermostability was determined as the residual activity of the enzyme, after incubated at given temperatures for 60 minutes in 10 mM acetate buffer (pH 6.0) followed by being cooled in cold water.

“Also recorded” adds a separate entry of the source.

B1: cellobiose 2-epimerase of the present invention: thermostable cellobiose 2-epimerase of Caldicellusiruptor saccharolyticus ATCC43494, amino acid sequence of SEQ ID NO:10 with 390 residues (protein, listed as Caldicellulosiruptor saccharolyticus)
chain: MDITRFKEDLKAHLEEKIIPFWQSLKDDEFGGYYGYMDFNLNIDRKAQKGCILNSRILWFFSACYNVLKSEKCKEMAFHAFEFLKNKFWDKEYEGLFWSVSHKGVPVDVTKHVYVQAFGIYGLSEYYEASGDEEALHMAKRLFEILETKCKRENGYTEQFERNWQEKENRFLSENGVIASKTMNTHLHVLESYTNLYRLLKLDDVYEALEWIVRLFVDKIYKKGTGHFKVFCDDNWNELIKAVSYGHDIEASWLLDQAAKYLKDEKLKEEVEKLALEVAQITLKEAFDGQSLINEMIEDRIDRSKIWWVEAETVVGFFNAYQKTKEEKYLDAAIKTWEFIKEHLVDRRKNSEWLWKVNEDLEAVNMPIVEQWKCPYHNGRMCLEIIKRVD
Regarding B1, the Specific activity in series [1] came to 26.9 unit/mg-protein. The “Inhibition by metal ions” value in series [2] was “Al^3+, Fe^2+, Fe^3+,; also recorded: Pb^2+, Cu^2+, Zn^2+,; also recorded: Hg^2+”. In series [3] (substrate Cellobiose), the “Substrate specificity: Cellobiose” value was “epicellobiose”. In addition, the “Substrate specificity: D-Galactose” value in series [3] (substrate D-Galactose) is reported as “Forming D-talose”. Further, in series [3] (substrate D-Glucose), the “Substrate specificity: D-Glucose” value was “Forming D-mannose”. The “Substrate specificity: D-Mannose” value in series [3] (substrate D-Mannose) is “Forming D-glucose”. For the same molecule, in series [3] (substrate Lactose), the “Substrate specificity: Lactose” value was “Forming epilactose”. In addition, the “Substrate specificity: Maltose” value in series [3] (substrate Maltose) is “Forming epimaltose”. In addition, in series [4], the “Optimum pH” value is given as 7.8. Also, the Optimum temperature in series [4], in series [4] (listed as Caldicellulosiruptor saccharolyticus ATCC43494) and in series [4] (listed as purified cellobiose 2-epimerase preparation) was 80 °C in each case.

B2: recombinant epimerase: cellobiose 2-epimerase expressed in E. coli transformant ETCS1 and purified by heat treatment and chromatography (protein, listed as Caldicellulosiruptor saccharolyticus)
chain: MDITRFKEDLKAHLEEKIIPFWQSLKDDEFGGYYGYMDFNLNIDRKAQKGCILNSRILWFFSACYNVLKSEKCKEMAFHAFEFLKNKFWDKEYEGLFWSVSHKGVPVDVTKHVYVQAFGIYGLSEYYEASGDEEALHMAKRLFEILETKCKRENGYTEQFERNWQEKENRFLSENGVIASKTMNTHLHVLESYTNLYRLLKLDDVYEALEWIVRLFVDKIYKKGTGHFKVFCDDNWNELIKAVSYGHDIEASWLLDQAAKYLKDEKLKEEVEKLALEVAQITLKEAFDGQSLINEMIEDRIDRSKIWWVEAETVVGFFNAYQKTKEEKYLDAAIKTWEFIKEHLVDRRKNSEWLWKVNEDLEAVNMPIVEQWKCPYHNGRMCLEIIKRVD
Turning to B2, the “Thermostability (stable up to)” value in series [5] was “up to 70 °C”. In addition, in series [4], the “Optimum pH” value is given as “about 7.8” and the Optimum temperature entry was “about 80 °C”.

These data come from patent US9175282B2, “Cellobiose 2-epimerase, its preparation and uses” (HAYASHIBARA CO., LTD., priority 2009, dated 2015).
